The results in this text go back to patent US20240261333A1 (published 2024).

One test concerns the target RPL6 (human, UniProt Q02878 2-288). The test is described as follows: co-IP with anti-FLAG, N-FLAG B3GNT2, mass spectrometry. The procedure:
(§1) Cells were plated in 10-cm cell culture dishes and grown to 60-80% confluency. For each condition, two biological replicates were harvested for co-IP. Cells were washed with PBS and 4 mL of lysis buffer (20 mM HEPES, 1% Triton X-100, 150 mM NaCl, 1 mM EDTA, and 10% glycerol) containing protease inhibitor cocktail was added. Cells were scraped and lysate was incubated at 4° C. under rotary agitation for 1 h. Lysate was centrifuged at 14,000×g for 10 min at 4° C. Supernatant was transferred to a new tube and an aliquot was taken as the input. […] For Western blots, 10 μg/mL Chicken Anti-FLAG (Aves labs ET-DY100) and IgY control (R&D Systems AB-101-C) antibodies were biotinylated (Thermo Fisher Scientific 90407) and added to the respective conditions. Lysates with antibodies were incubated at 4° C. under rotary agitation overnight. For each mL of lysate, 50 μL of Pierce Protein A/G Magnetic Beads (Mass spectrometry; Thermo Fisher Scientific 88803) or Pierce Streptavidin Magnetic Beads (Western blot; Thermo Fisher Scientific 88817) was washed twice with lysis buffer. Lysates with antibodies were added to the beads and incubated at 4° C. under rotary agitation for 4 h. Beads were washed with lysis buffer 3 times and resuspended in lysis buffer for storage.
(§2) Magnetic beads were resuspended in 100 mM Tris pH 7.8, reduced, alkylated and digested with trypsin at 37° ° C. overnight. This solution was subjected to solid phase extraction to concentrate the peptides and remove unwanted reagents followed by injection onto a Shimadzu HPLC with fraction collector. Eight fractions were collected and after concentration were injected on a Waters NanoAcquity HPLC equipped with a self-packed Aeris 3 μm C18 analytical column 0.075 mm by 20 cm, (Phenomenex). Peptides were eluted using standard reverse-phase gradients. The effluent from the column was analyzed using a Thermo Orbitrap Elite mass spectrometer (nanospray configuration) operated in a data dependent manner for 54 minutes. The resulting fragmentation spectra were correlated against the known database using Proteome Discover 1.4 (Thermo Fisher Scientific).

The target of another test is T1, EIF3I (human, UniProt Q13347 1-325).
T1 construct: Identified by mass spectrometry in the co-IP; also called NP_003748.1
The test is described as follows: co-IP with mouse anti-FLAG from lysate of cells overexpressing N-FLAG B3GNT2, then mass spectrometry. The procedure: as §1, §2

The target in a further test is T2, SRP14 (human, UniProt P37108 2-136).
T2 construct: Identified by mass spectrometry in the co-IP; also called NP_003125.3
T2 sequence (looked up): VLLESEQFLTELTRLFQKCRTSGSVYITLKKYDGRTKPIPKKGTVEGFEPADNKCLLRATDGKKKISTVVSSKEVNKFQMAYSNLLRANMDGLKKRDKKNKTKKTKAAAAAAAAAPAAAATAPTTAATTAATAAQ
The description is as above. The method, then: as §1, §2

For the next test, the target named is T3, TFAM (human, UniProt Q00059 43-246).
T3 construct: Identified by mass spectrometry in the co-IP; also called NP_003192.1
T3 sequence (looked up): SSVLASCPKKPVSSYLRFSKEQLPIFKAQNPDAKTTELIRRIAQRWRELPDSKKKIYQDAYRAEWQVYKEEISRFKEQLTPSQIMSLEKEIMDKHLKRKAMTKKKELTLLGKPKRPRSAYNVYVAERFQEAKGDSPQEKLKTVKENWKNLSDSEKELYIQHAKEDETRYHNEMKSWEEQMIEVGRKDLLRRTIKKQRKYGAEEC
The test is described as above. The method, then: as §1, §2

A further test concerns the target T4, MAGED2 (human, UniProt Q9UNF1 2-606).
T4 construct: Identified by mass spectrometry in the co-IP; also called NP_803182.1
T4 sequence (looked up): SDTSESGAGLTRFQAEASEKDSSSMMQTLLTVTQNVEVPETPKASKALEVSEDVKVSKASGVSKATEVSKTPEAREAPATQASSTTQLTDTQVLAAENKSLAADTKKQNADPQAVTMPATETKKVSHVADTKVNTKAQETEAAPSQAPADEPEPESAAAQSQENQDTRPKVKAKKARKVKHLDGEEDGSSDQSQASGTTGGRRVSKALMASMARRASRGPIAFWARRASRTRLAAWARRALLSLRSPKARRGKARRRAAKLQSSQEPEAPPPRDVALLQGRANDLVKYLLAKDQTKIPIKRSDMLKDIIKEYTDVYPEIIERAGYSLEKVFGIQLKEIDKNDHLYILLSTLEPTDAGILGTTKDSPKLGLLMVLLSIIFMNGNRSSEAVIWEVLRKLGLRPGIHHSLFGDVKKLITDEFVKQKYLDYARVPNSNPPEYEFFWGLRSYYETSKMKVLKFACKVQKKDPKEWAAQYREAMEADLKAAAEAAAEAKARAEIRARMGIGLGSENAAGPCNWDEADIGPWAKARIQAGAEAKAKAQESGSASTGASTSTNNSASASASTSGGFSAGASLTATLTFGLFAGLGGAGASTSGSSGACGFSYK
Described as above. The procedure: as §1, §2

In a further test the target is T5, TIMP3 (human, UniProt P35625 24-211).
T5 construct: Identified by mass spectrometry in the co-IP; also called NP_000353.1
T5 sequence (looked up): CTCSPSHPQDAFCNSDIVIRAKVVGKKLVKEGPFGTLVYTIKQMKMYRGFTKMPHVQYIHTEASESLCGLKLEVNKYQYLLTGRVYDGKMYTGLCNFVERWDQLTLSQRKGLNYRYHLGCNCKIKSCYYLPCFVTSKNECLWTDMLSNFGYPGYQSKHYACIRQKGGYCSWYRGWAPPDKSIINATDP
The description is as above. The procedure: as §1, §2

For a further test, the target named is T6, TCP1 (human, UniProt P17987 1-556).
T6 construct: Identified by mass spectrometry in the co-IP; also called NP_110379.2
The description is as above. The method, then:
as §1, §2

In the next test the target is T7, KHDRBS1 (human, UniProt Q07666 1-443).
T7 construct: Identified by mass spectrometry in the co-IP; also called NP_006550.1
Described as above. The method, then:
as §1, §2

T6 sequence (P17987 whole entry): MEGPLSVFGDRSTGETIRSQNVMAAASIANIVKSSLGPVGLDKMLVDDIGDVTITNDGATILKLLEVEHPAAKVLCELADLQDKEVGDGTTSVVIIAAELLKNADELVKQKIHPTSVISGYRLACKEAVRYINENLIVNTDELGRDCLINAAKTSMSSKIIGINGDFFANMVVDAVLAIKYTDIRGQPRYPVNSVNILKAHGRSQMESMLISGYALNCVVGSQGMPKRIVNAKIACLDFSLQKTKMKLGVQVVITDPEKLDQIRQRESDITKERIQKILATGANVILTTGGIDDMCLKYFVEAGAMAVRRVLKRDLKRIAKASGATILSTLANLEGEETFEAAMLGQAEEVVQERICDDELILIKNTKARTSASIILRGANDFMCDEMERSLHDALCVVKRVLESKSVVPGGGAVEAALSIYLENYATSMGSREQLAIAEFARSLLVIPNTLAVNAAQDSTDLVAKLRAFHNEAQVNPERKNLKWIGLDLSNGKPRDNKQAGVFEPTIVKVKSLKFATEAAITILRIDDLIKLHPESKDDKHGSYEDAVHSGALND
T7 sequence (Q07666 whole entry): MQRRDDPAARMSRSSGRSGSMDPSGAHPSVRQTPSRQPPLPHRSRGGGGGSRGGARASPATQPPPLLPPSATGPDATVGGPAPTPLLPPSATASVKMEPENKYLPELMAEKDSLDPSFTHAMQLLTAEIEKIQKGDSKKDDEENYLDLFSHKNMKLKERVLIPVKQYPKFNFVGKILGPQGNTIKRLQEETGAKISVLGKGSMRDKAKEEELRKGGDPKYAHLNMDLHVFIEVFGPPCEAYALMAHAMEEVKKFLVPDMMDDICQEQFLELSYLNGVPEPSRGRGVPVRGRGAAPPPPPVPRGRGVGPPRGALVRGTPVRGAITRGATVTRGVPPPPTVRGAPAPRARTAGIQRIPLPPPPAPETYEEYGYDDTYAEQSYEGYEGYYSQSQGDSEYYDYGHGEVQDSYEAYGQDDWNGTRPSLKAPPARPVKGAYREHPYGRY
T1 sequence (Q13347 whole entry): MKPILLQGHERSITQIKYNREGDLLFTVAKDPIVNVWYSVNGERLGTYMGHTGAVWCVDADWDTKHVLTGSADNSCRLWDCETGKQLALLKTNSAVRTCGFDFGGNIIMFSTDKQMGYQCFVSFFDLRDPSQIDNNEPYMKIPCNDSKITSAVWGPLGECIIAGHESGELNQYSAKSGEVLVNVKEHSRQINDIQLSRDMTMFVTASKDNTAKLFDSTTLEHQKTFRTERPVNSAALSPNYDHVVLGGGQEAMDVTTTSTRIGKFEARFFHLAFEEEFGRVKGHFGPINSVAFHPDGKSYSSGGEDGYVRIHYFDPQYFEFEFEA

B1: N-terminal FLAG tagged B3GNT2 (enzyme, human, UniProt Q9NY97 1-397, looked up)
chain: MSVGRRRIKLLGILMMANVFIYFIMEVSKSSSQEKNGKGEVIIPKEKFWKISTPPEAYWNREQEKLNRQYNPILSMLTNQTGEAGRLSNISHLNYCEPDLRVTSVVTGFNNLPDRFKDFLLYLRCRNYSLLIDQPDKCAKKPFLLLAIKSLTPHFARRQAIRESWGQESNAGNQTVVRVFLLGQTPPEDNHPDLSDMLKFESEKHQDILMWNYRDTFFNLSLKEVLFLRWVSTSCPDTEFVFKGDDDVFVNTHHILNYLNSLSKTKAKDLFIGDVIHNAGPHRDKKLKYYIPEVVYSGLYPPYAGGGGFLYSGHLALRLYHITDQVHLYPIDDVYTGMCLQKLGLVPEKHKGFRTFDIEEKNKNNICSYVDLMLVHSRKPQEMIDIWSQLQSAHLKC
notes: FLAG-tagged ORF overexpressed in A375 cells; pulled down from the lysate with mouse anti-FLAG; also called N-FLAG B3GNT2; N-term FLAG; not shown: N-terminal FLAG tag
With B1, the “co-IP/MS count, N-term FLAG” value in the test with RPL6 came out at 10.

B2: N-terminal FLAG tagged B3GNT2 (enzyme, human, UniProt Q9NY97 1-397, looked up)
chain: MSVGRRRIKLLGILMMANVFIYFIMEVSKSSSQEKNGKGEVIIPKEKFWKISTPPEAYWNREQEKLNRQYNPILSMLTNQTGEAGRLSNISHLNYCEPDLRVTSVVTGFNNLPDRFKDFLLYLRCRNYSLLIDQPDKCAKKPFLLLAIKSLTPHFARRQAIRESWGQESNAGNQTVVRVFLLGQTPPEDNHPDLSDMLKFESEKHQDILMWNYRDTFFNLSLKEVLFLRWVSTSCPDTEFVFKGDDDVFVNTHHILNYLNSLSKTKAKDLFIGDVIHNAGPHRDKKLKYYIPEVVYSGLYPPYAGGGGFLYSGHLALRLYHITDQVHLYPIDDVYTGMCLQKLGLVPEKHKGFRTFDIEEKNKNNICSYVDLMLVHSRKPQEMIDIWSQLQSAHLKC
notes: FLAG-tagged ORF overexpressed in A375 cells; bait of the co-IP with mouse anti-FLAG; also called N-FLAG B3GNT2; N-term FLAG; not shown: N-terminal FLAG tag
Regarding B2, the “co-IP mass spectrometry count (N-term FLAG)” value with EIF3I, with SRP14, in the test with TFAM, in the test with MAGED2, in the test with TIMP3 and with TCP1 was 0 in each case. Also, the “co-IP mass spectrometry count (N-term FLAG)” value with KHDRBS1 stood at 9.
